The target in test [1] is cRAD-TPX2_((7–43)) display protein (Pyrococcus furiosus | human) (UniProt O74036). As to the kind of experiment: SPR; Biacore T100, CM5, peptides or cRAD display proteins immobilised through their cysteine (240-400 RU), kinase as analyte 2.5 nM-2.5 μM, 25°C, 10 mM HEPES pH 7.4, 500 mM NaCl, 0.05% P20; 1:1 steady-state affinity model; CK2α data analysed at 200 s post-injection.

The target of test [2] is Alexa Fluor 488-labeled cRAD-TPX2_((7–43)) display protein (Pyrococcus furiosus | human) (UniProt O74036). The experiment in a line: fluorescence polarisation; fluorescence anisotropy, direct titration of kinase (CK2α 2 nM-2 μM; Aurora A D274N 2 nM-1.5 μM) into labelled peptide or display protein; 10 mM HEPES pH 7.4, 500 mM NaCl, 1 mM DTT, 0.05% P20; room temperature; 1:1 model. For orientation: In fluorescence polarisation assays a small probe gives low polarisation when free and higher when bound to something large.

B1: Aurora A_(D274N) kinase domain (domain or fragment)
chain: ESKKRQWALEDFEIGRPLGKGKFGNVYLAREKQSKFILALKVLFKAQLEKAGVEHQLRREVEIQSHLRHPNILRLYGYFHDATRVYLILEYAPLGTVYRELQKLSKFDEQRTATYITELANALSYCHSKRVIHRDIKPENLLLGSAGELKIANFGWSVHAPSSRRTTLCGTLDYLPPEMIEGRMHDEKVDLWSLGVLCYEFLVGKPPFEANTYQETYKRISRVEFTFPDFVTEGARDLISRLLKHNPSQRPMLREVLEHPWITANSSKPSNCQNKESASKQS
Turning to B1, the Kd (as a rule, the constant that tells how readily two partners part at equilibrium) in test [1] amounted to 168 nM; in test [2], 98 nM.
